Test results from publication PMC6162332, “A unique intracellular tyrosine in neuroligin-1 regulates AMPA receptor recruitment during synapse differentiation and potentiation” (Nature Communications, 2018).

target: T1, PSD-95-mCherry (rat, UniProt P31016 1-724); test: pull-down; GST or GST-Nlg1 proteins (0.64 nmol/200 µl) on glutathione magnetic beads in PBS pH 7.4, 0.01% BSA, 0.01% Tween-20; incubated 20 min at RT with purified PSD-95-mCherry (0.01 nmol/100 µL); eluted with glutathione; anti-PSD-95 immunoblot; details: both partners purified
T1 construct: PSD-95, rat; the rat PSD-95 gene subcloned in frame with an N-terminal mCherry into pET-24a(+) between EcoRI and XhoI; the methods give no limits; source: E. coli BL21-CodonPlus (DE3)-RIPL, purified (Ni-NTA, dialysed into PBS with 0.01% Tween-20); not shown: mCherry, N-terminal, kept
T1 sequence (P31016 whole entry): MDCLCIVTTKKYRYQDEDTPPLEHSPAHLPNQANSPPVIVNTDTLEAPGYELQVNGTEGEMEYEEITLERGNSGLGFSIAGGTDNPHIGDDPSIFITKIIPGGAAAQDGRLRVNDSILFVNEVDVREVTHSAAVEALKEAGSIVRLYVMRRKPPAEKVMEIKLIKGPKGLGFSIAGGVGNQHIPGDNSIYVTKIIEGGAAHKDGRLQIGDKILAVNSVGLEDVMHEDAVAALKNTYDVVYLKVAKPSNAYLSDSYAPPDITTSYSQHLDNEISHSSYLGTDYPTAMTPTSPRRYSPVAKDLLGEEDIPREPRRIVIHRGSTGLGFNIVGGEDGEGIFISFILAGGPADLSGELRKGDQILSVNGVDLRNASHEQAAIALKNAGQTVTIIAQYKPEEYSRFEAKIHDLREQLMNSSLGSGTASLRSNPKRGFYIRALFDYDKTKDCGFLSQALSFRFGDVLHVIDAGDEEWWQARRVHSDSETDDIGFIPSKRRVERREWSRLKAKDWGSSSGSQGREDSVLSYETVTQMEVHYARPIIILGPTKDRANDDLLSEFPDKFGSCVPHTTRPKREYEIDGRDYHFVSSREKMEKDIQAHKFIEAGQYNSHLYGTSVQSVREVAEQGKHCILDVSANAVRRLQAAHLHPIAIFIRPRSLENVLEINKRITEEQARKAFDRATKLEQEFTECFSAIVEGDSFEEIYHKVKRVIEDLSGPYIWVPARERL

binding result	Binder
binds	GST-Nlg1-WT (GST fused to the intracellular domain of neuroligin-1) (domain or fragment, mouse, UniProt Q99K10 719-843, looked up, neuroligin-1 (Nlg1), mouse, cytoplasmic tail amplified from HA-Nlg1 (with splice inserts A and B) and inserted in pGex-4T1 at XhoI/NotI; source: E. coli BL21 (DE3)-RIPL, purified (Glutathione Sepharose 4 Fast Flow, dialysed against PBS)) YKKDKRRHDVHRRCSPQRTTTNDLTHAPEEEIMSLQMKHTDLDHECESIHPHEVVLRTACPPDYTLAMRRSPDDIPLMTPNTITMIPNTIPGIQPLHTFNTFTGGQNNTLPHPHPHPHSHSTTRV
binds	GST-Nlg1-Y782A (domain or fragment, mouse, UniProt Q99K10 719-843, looked up, neuroligin-1 (Nlg1), mouse, cytoplasmic tail amplified from HA-Nlg1-Y782A and inserted in pGex-4T1 at XhoI/NotI; Same limits as m1 (same primers); source: E. coli BL21 (DE3)-RIPL, purified (Glutathione Sepharose 4 Fast Flow, dialysed against PBS)) YKKDKRRHDVHRRCSPQRTTTNDLTHAPEEEIMSLQMKHTDLDHECESIHPHEVVLRTACPPDATLAMRRSPDDIPLMTPNTITMIPNTIPGIQPLHTFNTFTGGQNNTLPHPHPHPHSHSTTRV
binds	GST-Nlg1-Y782F (domain or fragment, mouse, UniProt Q99K10 719-843, looked up, neuroligin-1 (Nlg1), mouse, cytoplasmic tail amplified from HA-Nlg1-Y782F and inserted in pGex-4T1 at XhoI/NotI; Same limits as m1 (same primers); source: E. coli BL21 (DE3)-RIPL, purified (Glutathione Sepharose 4 Fast Flow, dialysed against PBS)) YKKDKRRHDVHRRCSPQRTTTNDLTHAPEEEIMSLQMKHTDLDHECESIHPHEVVLRTACPPDFTLAMRRSPDDIPLMTPNTITMIPNTIPGIQPLHTFNTFTGGQNNTLPHPHPHPHSHSTTRV
